The values that follow come from PMC3811882, “The PR/SET Domain Zinc Finger Protein Prdm4 Regulates Gene Expression in Embryonic Stem Cells but Plays a Nonessential Role in the Developing Mouse Embryo”.

The series addresses Prdm4-ZFD (UniProt Q80V63 582-760). Put plainly: EMSA; EMSA as previously described (ref 41); 0.8% agarose gels for nuclear complexes, 5% acrylamide for purified His-tagged Prdm4; buffer, salt, pH and temperature not given. The settings on record: protein: recombinant; tags: His-HA; 5' overhang 2 nt (GG) on each strand. A general note: A gel shift assay detects complexes by their altered migration in electrophoresis.

Changes are numbered by the printed parent chain.

Chain of Prdm4-ZFD (Q80V63 582-760): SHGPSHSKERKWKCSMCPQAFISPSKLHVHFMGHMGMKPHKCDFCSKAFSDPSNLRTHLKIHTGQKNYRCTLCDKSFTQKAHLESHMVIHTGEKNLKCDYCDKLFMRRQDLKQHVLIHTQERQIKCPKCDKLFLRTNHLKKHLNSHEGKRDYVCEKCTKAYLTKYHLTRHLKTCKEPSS

B1: wild-type Bahcc1 (dsDNA)
DNA 1: GGCCTGGGTCGGCCCGCGGGGATCCTGGAAACCGTCCCCGGTTTATCTCCTT
DNA 2: GGAAGGAGATAAACCGGGGACGGTTTCCAGGATCCCCGCGGGCCGACCCAGG
Consider B1, for which the binding result is recorded as “binds”.

B2: ΔGAAAC Bahcc1 (dsDNA)
DNA 1: B1 DNA 1 with G28T, A29C, A30C, A31C, C32A
DNA 2: B1 DNA 2 with G23T, T24G, T25G, T26G, C27A
Turning to B2, the binding result was “no binding”.
